Molecular target: T1, myc-tagged APP-AICD(C99) (UniProt P05067 672-770)
T1 construct: domain: APP-AICD(C99); also called APP-AID(C99); not shown: myc tag
Test: co-IP from 293T lysate: anti-myc IP, anti-HA Western blot

binding result: binds
B1: HA-168 deletion mutant 118-264AA (other)
chain: GHPPTALESVMLGVGSRSVAGVCMSPITVIKTRYESGKYGYESIYAALRSIYHSEGHRGLFSGLTATLLRDAPFSGIYLMFYNQTKNIVPHDQVDATLIPITNFSCGIFAGILASLVTQPAGVIKTHMQLYPLKFQWIGQAVTLIFK
notes: not shown: HA tag
